In paper PMC314469, “Protein Interaction Networks by Proteome Peptide Scanning” (PLoS Biology, 2004) one finds normalised SPOT signal, Boehringer light units (BLU); mean over the file's lines of this peptide data, which are given here for 14 molecules.

What all share (test): SPOT array
Test [1] concerns the target T1, Yfr024 SH3 (LSB3_YEAST), P43603.
T1 chain: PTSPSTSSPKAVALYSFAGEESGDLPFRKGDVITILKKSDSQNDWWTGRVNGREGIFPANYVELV

The target in test [2] is Sho1 SH3 (SHO1_YEAST), P40073.
In test [3] the target is T2, Boi2 SH3 (BOI2_YEAST), P39969.
T2 chain: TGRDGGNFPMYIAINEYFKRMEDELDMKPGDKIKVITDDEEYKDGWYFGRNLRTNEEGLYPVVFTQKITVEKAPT

For test [4], the target named is T3, Boi1 SH3 (BOI1_YEAST), P38041.
T3 chain: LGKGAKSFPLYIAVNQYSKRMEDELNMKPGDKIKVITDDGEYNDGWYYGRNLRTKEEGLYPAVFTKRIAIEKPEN

Test [5] deals with T4, Rvs167 SH3 (RV167_YEAST), P39743.
T4 chain: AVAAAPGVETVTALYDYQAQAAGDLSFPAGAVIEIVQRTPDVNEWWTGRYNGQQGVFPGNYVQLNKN

Test [6] addresses T5, Yhr016c SH3 (YSC84_YEAST), P32793.
T5 chain: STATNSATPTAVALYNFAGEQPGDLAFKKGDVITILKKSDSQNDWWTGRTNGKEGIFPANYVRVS

In test [7] the target is T6, Myo5 SH3 (MYO5_YEAST), Q04439.
T6 chain: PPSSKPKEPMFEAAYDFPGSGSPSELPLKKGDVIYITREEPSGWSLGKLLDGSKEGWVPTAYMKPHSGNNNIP

Sho1 SH3 (SHO1_YEAST), P40073, sequence (P40073 295-366): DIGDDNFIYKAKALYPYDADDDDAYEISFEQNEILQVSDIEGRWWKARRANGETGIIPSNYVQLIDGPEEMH

B1: YNL331C 2-15 (peptide)
chain: TDLFKPLPEPPTEL
Turning to B1, the normalised SPOT signal, Boehringer light units (BLU); mean over the file's lines of this peptide in test [1] was found to be 129; in test [2], 14700; in test [3] it was 23.1; in test [4], 32.5; in test [5], 18.8; in test [6], 31.5. Further, the normalised SPOT signal, Boehringer light units (BLU); mean over the file's lines of this peptide in test [7] turned out to be 23.4.

B2: YPL009C 63-76 (peptide)
chain: TEFSRPIPPTPSGF
In the case of B2, the normalised SPOT signal, Boehringer light units (BLU); mean over the file's lines of this peptide in test [1] amounted to 13800; in test [2] it was 86.7; in test [3], 0; in test [4] it was 40.4; in test [5], 34400; in test [6], 9520. Moreover, the normalised SPOT signal, Boehringer light units (BLU); mean over the file's lines of this peptide in test [7] stood at 163.

B3: YPR135W 471-484 (peptide)
chain: TGKFRYMPFSPAGT
For B3, the normalised SPOT signal, Boehringer light units (BLU); mean over the file's lines of this peptide came out at 607 in test [1]; 301 in test [2]; 103 in test [3]; 463 in test [4]; 430 in test [5]; 148 in test [6]. In test [7], the normalised SPOT signal, Boehringer light units (BLU); mean over the file's lines of this peptide turned out to be 556.

B4: YLR032W 80-93 (peptide)
chain: TELLRIIPEMPKDL
For the molecule B4, the normalised SPOT signal, Boehringer light units (BLU); mean over the file's lines of this peptide in test [1] amounted to 132; in test [2], 97.2; in test [3], 15.7; in test [4] it was 79.9; in test [5], 22.9; in test [6], 19.4. The molecule also returned a normalised SPOT signal, Boehringer light units (BLU); mean over the file's lines of this peptide in test [7] of 228.

B5: YGR054W 516-529 (peptide)
chain: TGGGRIVPGVPPGA
For B5, the normalised SPOT signal, Boehringer light units (BLU); mean over the file's lines of this peptide came to 132 in test [1]; 72.9 in test [2]; 21.9 in test [3]; 79.3 in test [4]; 313 in test [5]; 50.4 in test [6]. The same molecule returned a normalised SPOT signal, Boehringer light units (BLU); mean over the file's lines of this peptide in test [7] of 118.

B6: YDR443C 541-554 (peptide)
chain: TDLGKDIPFFPSSE
For the molecule B6, the normalised SPOT signal, Boehringer light units (BLU); mean over the file's lines of this peptide is 9.5 in test [1]; 48.6 in test [2]; 15.6 in test [3]; 0 in test [4]; 59.3 in test [5]; 13.5 in test [6]. Also, in test [7], the normalised SPOT signal, Boehringer light units (BLU); mean over the file's lines of this peptide was 146.

B7: YBR066C 94-107 (peptide)
chain: TASGKTSPILPLQN
Regarding B7, the normalised SPOT signal, Boehringer light units (BLU); mean over the file's lines of this peptide in test [1] came out at 2.6; in test [2], 0.1; in test [3] it was 20.8; in test [4] it was 106; in test [5], 35.8; in test [6], 5.1. Also, in test [7], the normalised SPOT signal, Boehringer light units (BLU); mean over the file's lines of this peptide stood at 290.

B8: YGR110W 91-104 (peptide)
chain: TELLKTLPFYPTPS
On to B8, for which the normalised SPOT signal, Boehringer light units (BLU); mean over the file's lines of this peptide in test [1] came to 22.7; in test [2], 53.6; in test [3] it was 0; in test [4], 57.9; in test [5], 57.4; in test [6], 10.8. This molecule came in with a normalised SPOT signal, Boehringer light units (BLU); mean over the file's lines of this peptide in test [7] of 77.3.

B9: YEL031W 1078-1091 (peptide)
chain: TEIYKLEPREPQVD
Consider B9, for which the normalised SPOT signal, Boehringer light units (BLU); mean over the file's lines of this peptide in test [1] amounted to 0; in test [2], 29; in test [3] it was 15.6; in test [4] it was 132; in test [5] it was 98; in test [6], 64.7. The same molecule came in with a normalised SPOT signal, Boehringer light units (BLU); mean over the file's lines of this peptide in test [7] of 29.1.

B10: YGR099W 447-460 (peptide)
chain: TGESRKAPLIPLLK
With B10, the normalised SPOT signal, Boehringer light units (BLU); mean over the file's lines of this peptide in test [1] was 162; in test [2] it was 23.8; in test [3], -0; in test [4] it was 8.4; in test [5], 101; in test [6], 5.8. The same molecule displayed a normalised SPOT signal, Boehringer light units (BLU); mean over the file's lines of this peptide in test [7] of 214.

B11: YCR032W 1849-1862 (peptide)
chain: TEVWRKVPMKPIFE
Take B11: the normalised SPOT signal, Boehringer light units (BLU); mean over the file's lines of this peptide was determined as 4970 in test [1]; 59.1 in test [2]; 33.4 in test [3]; 163 in test [4]; 523 in test [5]; 788 in test [6]. In test [7], this molecule returned a normalised SPOT signal, Boehringer light units (BLU); mean over the file's lines of this peptide of 243.

B12: YLR422W 149-162 (peptide)
chain: TGKPRKTPRPPFPF
Take B12: the normalised SPOT signal, Boehringer light units (BLU); mean over the file's lines of this peptide stood at 6310 in test [1]; 121 in test [2]; 27.8 in test [3]; 1420 in test [4]; 3630 in test [5]; 1160 in test [6]. The normalised SPOT signal, Boehringer light units (BLU); mean over the file's lines of this peptide in test [7] worked out at 1190.

B13: YLL058W 44-57 (peptide)
chain: TGYPRYFPQPPVQR
As to B13, the normalised SPOT signal, Boehringer light units (BLU); mean over the file's lines of this peptide in test [1] was found to be 415; in test [2], 44.3; in test [3], 34.1; in test [4] it was 3760; in test [5], 261; in test [6], 36.7. Further, the normalised SPOT signal, Boehringer light units (BLU); mean over the file's lines of this peptide in test [7] was 5860.

B14: YHR188C 382-395 (peptide)
chain: TDTTKVTPIVPVPI
Take B14: the normalised SPOT signal, Boehringer light units (BLU); mean over the file's lines of this peptide in test [1] is 11.7; in test [2], 30.2; in test [3] it was -0; in test [4], 27.1; in test [5], 24.6; in test [6] it was 6.5. In test [7], this molecule yielded a normalised SPOT signal, Boehringer light units (BLU); mean over the file's lines of this peptide of 48.
